The target of test [1] is T1, angiostatin kringles 1-4 (Homo sapiens, UniProt P00747).
T1 construct: the resulting peptides incubated with purified angiostatin kringles 1-4
Kind of test: Immunoprecipitation of angiostatin K1-4 after incubation with trypsinized ATP synthase subunit α, mass spectrometry of bound peptides. Format: binding. Particulars: for abundance based on peptide spectral matches (PSMs): angiostatin-bound peptides after immunoprecipitation; for binding to angiostatin (immunoprecipitation, mass spectrometry): peptides from trypsin digest of recombinant F1F0 ATP synthase subunit α incubated with purified angiostatin kringles 1-4. The procedure: Trypsin digestion of ATP synthase subunit α. Recombinant F1F0 ATP synthase subunit α was digested with trypsin, and following heat-inactivation of trypsin the resulting peptides incubated with purified angiostatin kringles 1-4. Subsequently, the angiostatin was immunoprecipitated and submitted for mass spectroscopy analysis to identify any potential bound peptides of subunit α.

The subject of test [2] is eNOS protein expression. Briefly: Immunoblot of eNOS in angiostatin-treated hypoxic HMVEC-C. The format is cell-based, Human. As to conditions: 48 hours hypoxic conditions, peptides tested with angiostatin. The procedure:
(§1) Cell culture and hypoxia. Cardiac-derived Human microvascular endothelial cells from (HMVEC-C) were obtained from Lonza (Walkersville, Md., USA) and cultured in a humidified atmosphere at 37° C. and 5% CO2 in EGM-2 MV. Depending on the donor, the primary endothelial cells were serum starved for 4-16 h in EBM-2 and 0.5% FBS prior to exposure to hypoxic conditions. The time of serum starvation prior to treatment was titrated to induce approximately 40% apoptosis following treatment under normoxic conditions. Hypoxia was induced by exposing endothelial cells for 48 h under serum-starved conditions in a Billups-Rothenberg chamber continuously gassed with 95% N2-5% CO2.
(§2) Immunoblots. HMVEC-L lysates were subjected to 8% sodium dodecyl sulfate-polyacrylamide gel electrophoresis Blots were blocked overnight in TTBS and 5% non-fat milk and then cut at the 50 KDa across the membrane. Subsequently the >50 KDa upper membrane was incubated with either rabbit anti-human MMP-14 (MT1-MMP) (1 μg/ml) (Millipore) (Etobicoke, ONT, Canada), or mouse anti-eNOS (1:1000) (Abcam) (Toronto, ONT, Canada) for 2 h. Anti-mouse (1:10,000), or anti-rabbit (1:5000) horseradish peroxidase-conjugated antibodies were used as the secondary antibodies (Sigma, Oakville, ON, Canada). […] Blot bands were quantified using ImageJ software (Bio-Rad, Mississauga, ON, Canada) and expressed as arbitrary units of density per β-actin.
On the technique in general: In western blotting, separated proteins are transferred to a membrane and probed.

In test [3] the test system is MT1-MMP protein expression. Kind of test: Immunoblot of MT1-MMP (MMP-14) in angiostatin-treated hypoxic HMVEC-C. Format: cell-based, Human. Particulars: 48 hours hypoxic conditions, peptides tested with angiostatin. The procedure:
as §1, §2

Test [4] has as its system MMP-2 protein expression. Briefly: Gelatin zymography of MMP-2 in HMVEC-C lysates. Particulars: 48 hours hypoxic conditions, peptides tested with angiostatin. Format: cell-based, Human. The procedure: as §1
Gelatin zymography. Gelatin zymography was used to assess MMP-2 levels within HMVEC-C lysates. Zymography was performed using 8% SDS-PAGE with copolymerized gelatin (2 mg/ml). After electrophoresis, gels were washed 3× for 20 min in 2% Triton X-100. Next, gels were washed 2· for 20 min in developing buffer (50 mM Tris-HCl pH 7.6, 150 mM NaCl, 5 mM CaCl2), and 0.05% NaN3) and then incubated in developing buffer at 37° C. overnight. Gels were stained with 0.05% Coomassie Brilliant Blue and then destained in a 4% ethanol and 8% acetic acid solution. Gelatinolytic activity was detected as transparent bands against a blue background of Coomassie-stained gelatin. […]

Test [5] concerns fibrinolysis. Kind of test: In vitro fibrinolysis assay in citrated human plasma. As to conditions: recalcified human plasma, thrombin + tPA 1 μg/ml, 2 hours 37° C.; combined peptides each 1 μM, aprotinin 10 μM. Format: biochemical. The procedure: Fibrinolysis Assays. Citrated human plasma (platelet-free) was recalcified to a final free Ca^2+ concentration of 2.5 mM. After recalcification, plasma was incubated with a peptide 1, 2, 3, or with combined a peptides 1-3 (each 1 μM), or with negative control 8 peptide (3 μM) or with aprotinin (10 μM) as positive control for inhibiting fibrinolysis. To initiate clotting ice-cold thrombin (0.3 U/ml) was added to each well, while to initiate fibrinolysis human tissue plasminogen activator (1 μg/ml; Sigma) was added. After 2 hours incubation at 37° C. the absorbance at 405 nm was measured using a Bio-Rad iMark microplate reader and the results were expressed as percent fibrinolysis.

In test [6] the test system is HMVEC-C. Kind of test: Endothelial cell migration assay under hypoxia. Format: cell-based, Human. As to conditions: hypoxia 48 hours, VEGF 10 ng/ml chemoattractant, angiostatin 600 nM; combined peptides 1 μM each. The procedure:
Migration assays. 24-well plate inserts with […] pores (Falcon Corning, Tewksbury, Mass., USA) were coated with 1 mg/ml gelatin and incubated at 37° C. for 2 hours to allow gelatin to solidify. Excess gelatin was aspirated and inserts were left to dry overnight under UV light, then gently washed once with 100μl of PBS. Once approximately 80% confluent, HMVEC-C were serum starved for 8 hours in 0.5% FBS in EBM-2. Cells were trypsinized and seeded into the top chamber of the gelatin-coated inserts at a concentration of 25 000 cells/insert. Recombinant VEGF (10 ng/ml) in 0.5% FBS in EBM-2 was added to the corresponding bottom chambers to serve as a chemoattractant. HMVEC-C were treated with PBS control, angiostatin (600 nM), angiostatin (600 nM)+a peptide 1 through 3 (3 μM), angiostatin (600 nM)+negative-control 6 peptide (3 μM), and angiostatin (600 nM)+combined a peptide 1-3 (1 μM each). The system was incubated in hypoxia (95% N2, 5% CO2) for 48 hours. After incubation, the top layer of each insert was scraped gently using a Q-tip to remove the non-migrated cells. Migrated cells at the bottom of the insert were fixed in 4% formaldehyde in PBS for five minutes, followed by staining using Diffquik stain (Siemens Healthcare Diagnostics Inc., Newark, Del., USA). […] Cells were counted using ImageJ software, and expressed as migration percent of PBS control.

T1 sequence (P00747 79-466 limits assumed): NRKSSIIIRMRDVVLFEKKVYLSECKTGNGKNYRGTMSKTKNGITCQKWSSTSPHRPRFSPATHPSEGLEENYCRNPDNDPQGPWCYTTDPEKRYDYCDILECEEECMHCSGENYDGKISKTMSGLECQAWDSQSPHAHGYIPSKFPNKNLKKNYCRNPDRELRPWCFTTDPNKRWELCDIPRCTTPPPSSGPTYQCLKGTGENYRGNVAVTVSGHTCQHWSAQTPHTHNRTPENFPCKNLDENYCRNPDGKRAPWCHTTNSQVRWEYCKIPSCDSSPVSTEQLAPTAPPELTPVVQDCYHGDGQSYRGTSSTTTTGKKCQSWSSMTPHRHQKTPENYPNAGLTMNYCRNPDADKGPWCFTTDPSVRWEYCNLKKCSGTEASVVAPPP

As to AVDSLVPIGR [Alpha peptide 3], in test [1], the “abundance based on peptide spectral matches (PSMs)” value (“abundance based” for short) is recorded as “medium abundance” and the “binding to angiostatin (immunoprecipitation, mass spectrometry)” value (from here on “binding to angiostatin”) is “bound to angiostatin”.
Take TGTAEMSSILEER [Alpha peptide 1]: in test [1], the “abundance based” value was “high abundance” and the “binding to angiostatin” value is given as “bound to angiostatin”.
As for TSIAIDTIINQK [Alpha peptide 2], in test [1], the “abundance based” value is listed as “medium abundance” and the “binding to angiostatin” value is recorded as “bound to angiostatin”.
With “VPTLQVLRPGLVV [delta peptide, reference compound]”, the “eNOS levels (immunoblot)” value in test [2] is reported as “failed to significantly increase”. The “MT1-MMP levels (immunoblot)” value in test [3] was “failed to significantly increase”. Besides, in test [4], the “MMP-2 levels (gelatin zymography)” value is “failed to significantly increase”.
For aprotinin, in test [5], the inhibition of fibrinolysis result is listed as “fibrinolysis inhibitor”.

B1: angiostatin (protein)
chain: YLSECKTGNGKNYRGTMSKTKNGITCQKWSSTSPHRPRFSPATHPSEGLEENYCRNPDNDPQGPWCYTTDPEKRYDYCDILECEEECMHCSGENYDGKISKTMSGLECQAWDSQSPHAHGYIPSKFPNKNLKKNYCRNPDRELRPWCFTTDPNKRWELCDIPRCTTPPPSSGPTYQCLKGTGENYRGNVAVTVSGHTCQHWSAQTPHTHNRTPENFPCKNLDENYCRNPDGKRAPWCHTTNSQVRWEYCKIPSCDSSPVSTEQLAPTAPPELTPVVQDCYHGDGQSYRGTSSTTTTGKKCQSWSSMTPHRHQKTPENYPNAGLTMNYCRNPDADKGPWCFTTDPSVRWEYCNLKKCSGTEA
Take B1: in test [2], the “eNOS levels (immunoblot)” value is recorded as “significant reduction”. For the same molecule, in test [3], the “MT1-MMP levels (immunoblot)” value is reported as “significant reduction”. The “MMP-2 levels (gelatin zymography)” value in test [4] is reported as “significant reduction”. In test [6], the HMVEC-C migration entry is listed as “decreased”.

These data come from patent publication US20230125500A1, “ANGIOSTATIN NEUTRALIZING PEPTIDES DERIVED FROM ATP SYNTHASE ALPHA SUBUNIT” (The Governors of the University of Alberta, priority 2021, published 2023).
